Measured values published in patent US20260286002 (published 2026).
Like-named read-outs stand apart in the source and are kept apart here.

Assays:
[1] = target: T1, human CD39-His (human, UniProt P49961); assay: BLI
T1 chain: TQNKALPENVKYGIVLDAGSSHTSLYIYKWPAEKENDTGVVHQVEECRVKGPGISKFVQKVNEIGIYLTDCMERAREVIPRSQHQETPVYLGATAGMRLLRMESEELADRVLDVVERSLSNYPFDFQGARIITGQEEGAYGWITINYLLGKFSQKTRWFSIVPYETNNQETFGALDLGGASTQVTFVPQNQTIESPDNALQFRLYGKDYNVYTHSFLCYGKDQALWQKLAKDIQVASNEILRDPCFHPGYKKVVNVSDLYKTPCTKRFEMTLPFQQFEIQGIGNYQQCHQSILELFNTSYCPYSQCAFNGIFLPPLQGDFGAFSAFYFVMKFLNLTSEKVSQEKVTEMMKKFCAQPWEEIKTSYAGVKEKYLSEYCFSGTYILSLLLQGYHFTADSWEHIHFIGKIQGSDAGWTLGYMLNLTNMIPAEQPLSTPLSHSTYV

[2] = target: T1, human CD39-His; assay: BLI

B1: B391-F04 (designed binder)
chain: QLQLVESGGGLVQPGGSLRLSCAASGFTFSNLGMSWYRQAPGKAREWVGSISASGDYTTYQNSVKGRFTISRDNAKNTLYLQMNNLKPEDTGVYYCTRRVDSYPRGQGTQVTVSS
B1 was tested, and the Kd [1] was 0.255 nM and the Kd [2] was 0.398 nM.
